Tests used:
Assay in all cases: ELISA cross-reactivity of M048-D01 Fab
Conditions in all cases: Fab 1 μg/ml, TRAIL-Fc wells as background
hFGFR4-Fc = molecular target: T1, hFGFR4-Fc (Homo sapiens, UniProt P22455); format: binding
T1 construct: purchased RnD Systems 685-MF
Procedure: (§1) The cross-reactivity of the human antibodies M048-D01-hIgG1 and M048-D01-hIgG1-b of the present application was determined using the parental Fab fragment M048-D01 (comprising Vh: SEQ ID NO: 21 and Vl: SEQ ID NO: 22).
(§2) All of the variants took the form of Fc fusion proteins in carrier-free preparations. The proteins were biotinylated according to manufacturer instructions, using a 2-fold molar excess of biotin-LC-NHS (Pierce; Cat. No. 21347) and desalted using Zeba desalting columns (Pierce; Cat. No. 89889). For the ELISA, 96-well plates pretreated with streptavidin (Pierce, 15500) were loaded overnight at 4° C. with 1 μg/ml biotinylated protein. Wells which had been loaded with biotinylated TRAIL-Fc served as a reference. The next day the plates were washed 3× with PBST (1×PBS admixed with 0.05% Tween 20 (Sigma, P7949)), treated with blocking buffer (PBST admixed with 3% BSA (Sigma A4503)), and again washed three times with PBST. 100 μl of the purified Fab (1 μg/ml) were added, and incubation was carried out at room temperature for 1 hour. After threefold washing with PBST, an HRP-coupled anti-hIgG (Fab-specific) (diluted 1:2500, Sigma, A0293) was added, and incubation took place at room temperature for 1 hour. The colour reaction was activated by addition of 50 μl of TMB (Invitrogen, 2023) and halted after 5-15 minutes by addition of 50 μl of H2SO4 (Merck, 1120801000). The colour reaction was monitored at 450 nm in a plate reader (Tecan). The signal strengths of the wells containing TRAIL-Fc were used as background values, and the signal-to-background ratios were calculated as summarized in Table 3.

hFGFR1β-Fc (IIIc) = molecular target: T2, hFGFR1β-Fc (IIIc) (Homo sapiens, UniProt P11362); format: binding
T2 construct: purchased RnD Systems 661-FR
Procedure: as §1, §2

mFGFR2β-Fc (IIIb) = molecular target: T3, mFGFR2β-Fc (IIIb) (Mus musculus, UniProt P21803); format: binding
T3 construct: purchased RnD Systems 708-MF
Procedure: as §1, §2

mFGFR3-Fc (IIIc) = molecular target: T4, mFGFR3-Fc (IIIc) (Mus musculus, UniProt Q61851); format: binding
T4 construct: purchased RnD Systems 710-MF
T4 sequence (Q61851 21-369 limits assumed): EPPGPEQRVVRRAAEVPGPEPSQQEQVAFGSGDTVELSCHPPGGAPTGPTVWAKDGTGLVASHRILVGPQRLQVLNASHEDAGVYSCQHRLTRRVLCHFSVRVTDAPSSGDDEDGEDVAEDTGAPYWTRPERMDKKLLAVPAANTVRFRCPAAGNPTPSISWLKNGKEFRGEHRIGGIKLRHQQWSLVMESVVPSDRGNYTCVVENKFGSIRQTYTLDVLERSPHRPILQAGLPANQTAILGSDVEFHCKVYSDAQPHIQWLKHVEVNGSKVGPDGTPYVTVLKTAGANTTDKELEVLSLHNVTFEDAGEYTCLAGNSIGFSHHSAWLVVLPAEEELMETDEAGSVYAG
Procedure: as §1, §2

hFGFR3-Fc (IIIc) = molecular target: T5, hFGFR3-Fc (IIIc) (Homo sapiens, UniProt P22607); format: binding
T5 construct: purchased RnD Systems 766-FR
T5 sequence (P22607 23-375 limits assumed): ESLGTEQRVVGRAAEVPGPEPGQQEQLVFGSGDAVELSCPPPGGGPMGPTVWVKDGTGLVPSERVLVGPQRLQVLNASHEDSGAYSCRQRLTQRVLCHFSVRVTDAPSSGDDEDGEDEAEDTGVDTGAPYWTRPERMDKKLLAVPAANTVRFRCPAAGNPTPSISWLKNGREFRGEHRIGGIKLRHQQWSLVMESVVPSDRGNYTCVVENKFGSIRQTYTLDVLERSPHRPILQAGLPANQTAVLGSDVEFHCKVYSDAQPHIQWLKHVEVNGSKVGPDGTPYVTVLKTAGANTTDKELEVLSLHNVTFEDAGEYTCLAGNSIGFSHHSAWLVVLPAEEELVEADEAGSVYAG
Procedure: as §1, §2

hFGFR2β-Fc (IIIb) = molecular target: T6, hFGFR2β-Fc (IIIb) (Homo sapiens, UniProt P21802); format: binding
T6 construct: purchased RnD Systems 665-FR
Procedure: as §1, §2

hFGFR2α-Fc (IIIb) = molecular target: T7, hFGFR2α-Fc (IIIb) (Homo sapiens, UniProt P21802); format: binding
T7 construct: purchased RnD Systems 663-FR
Procedure: as §1, §2

hFGFR3-Fc (IIIb) = molecular target: T8, hFGFR3-Fc (IIIb) (Homo sapiens, UniProt P22607); format: binding
T8 construct: purchased RnD Systems 1264-FR
Procedure: as §1, §2

mFGFR2β-Fc (IIIc) = format: binding, Mouse
Procedure: as §1
as §2, with “After threefold washing with PBST, an HRP-coupled anti-hIgG (Fab-specific) (diluted 1:2500, Sigma, A0293) was added, and incubation took place at room temperature for 1 hour. The colour reaction was activated by addition of 50 μl of TMB (Invitrogen, 2023) and halted after 5-15 minutes by addition of 50 μl of H2SO4 (Merck, 1120801000).” left out

hFGFR1β-Fc (IIIb) = format: binding, Human
Procedure: as §1
as §2, with “After threefold washing with PBST, an HRP-coupled anti-hIgG (Fab-specific) (diluted 1:2500, Sigma, A0293) was added, and incubation took place at room temperature for 1 hour. The colour reaction was activated by addition of 50 μl of TMB (Invitrogen, 2023) and halted after 5-15 minutes by addition of 50 μl of H2SO4 (Merck, 1120801000).” left out

hFGFR2β-Fc (IIIc) = format: binding, Human
Procedure: as §1
as §2, with “After threefold washing with PBST, an HRP-coupled anti-hIgG (Fab-specific) (diluted 1:2500, Sigma, A0293) was added, and incubation took place at room temperature for 1 hour. The colour reaction was activated by addition of 50 μl of TMB (Invitrogen, 2023) and halted after 5-15 minutes by addition of 50 μl of H2SO4 (Merck, 1120801000).” left out

T8 sequence (P22607 23-808 isoform P22607-2 limits assumed): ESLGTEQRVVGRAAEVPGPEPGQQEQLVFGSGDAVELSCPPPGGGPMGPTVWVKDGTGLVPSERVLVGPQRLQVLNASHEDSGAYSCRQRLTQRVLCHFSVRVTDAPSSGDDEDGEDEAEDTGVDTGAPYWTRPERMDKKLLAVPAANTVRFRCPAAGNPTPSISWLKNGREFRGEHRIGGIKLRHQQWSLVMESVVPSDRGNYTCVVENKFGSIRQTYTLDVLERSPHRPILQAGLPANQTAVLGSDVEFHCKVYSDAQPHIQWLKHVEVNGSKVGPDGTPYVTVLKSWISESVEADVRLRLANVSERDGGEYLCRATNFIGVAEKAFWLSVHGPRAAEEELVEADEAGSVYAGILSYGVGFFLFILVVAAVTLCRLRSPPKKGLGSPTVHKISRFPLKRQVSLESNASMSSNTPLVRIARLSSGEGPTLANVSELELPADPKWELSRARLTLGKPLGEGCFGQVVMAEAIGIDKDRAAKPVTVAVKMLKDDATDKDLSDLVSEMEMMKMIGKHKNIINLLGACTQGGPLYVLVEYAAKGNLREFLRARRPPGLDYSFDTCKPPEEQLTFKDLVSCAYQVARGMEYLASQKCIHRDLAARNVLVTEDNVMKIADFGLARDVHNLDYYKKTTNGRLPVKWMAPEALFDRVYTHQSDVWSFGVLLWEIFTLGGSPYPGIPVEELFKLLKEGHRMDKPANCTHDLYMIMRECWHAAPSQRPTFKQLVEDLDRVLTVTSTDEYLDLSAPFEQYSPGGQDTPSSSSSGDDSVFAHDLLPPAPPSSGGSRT
T6 sequence (P21802 22-680 isoform P21802-22 limits assumed): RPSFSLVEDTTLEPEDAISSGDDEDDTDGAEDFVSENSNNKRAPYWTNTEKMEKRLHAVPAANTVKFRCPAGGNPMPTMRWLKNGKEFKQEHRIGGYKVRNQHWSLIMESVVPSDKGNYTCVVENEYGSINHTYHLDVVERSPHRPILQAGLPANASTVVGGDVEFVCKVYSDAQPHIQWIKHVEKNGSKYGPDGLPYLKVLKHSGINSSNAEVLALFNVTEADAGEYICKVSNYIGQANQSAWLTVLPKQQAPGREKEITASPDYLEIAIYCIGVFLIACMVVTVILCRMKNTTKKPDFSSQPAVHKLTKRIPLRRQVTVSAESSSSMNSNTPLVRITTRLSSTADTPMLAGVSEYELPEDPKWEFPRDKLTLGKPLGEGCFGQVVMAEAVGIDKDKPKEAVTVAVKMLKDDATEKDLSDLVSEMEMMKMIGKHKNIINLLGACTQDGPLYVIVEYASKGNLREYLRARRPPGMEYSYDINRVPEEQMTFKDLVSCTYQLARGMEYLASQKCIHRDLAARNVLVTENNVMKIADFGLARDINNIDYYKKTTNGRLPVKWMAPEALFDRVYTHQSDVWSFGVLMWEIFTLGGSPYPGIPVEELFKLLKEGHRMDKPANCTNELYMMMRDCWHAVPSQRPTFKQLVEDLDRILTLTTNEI
T7 sequence (P21802 22-822 isoform P21802-3 limits assumed): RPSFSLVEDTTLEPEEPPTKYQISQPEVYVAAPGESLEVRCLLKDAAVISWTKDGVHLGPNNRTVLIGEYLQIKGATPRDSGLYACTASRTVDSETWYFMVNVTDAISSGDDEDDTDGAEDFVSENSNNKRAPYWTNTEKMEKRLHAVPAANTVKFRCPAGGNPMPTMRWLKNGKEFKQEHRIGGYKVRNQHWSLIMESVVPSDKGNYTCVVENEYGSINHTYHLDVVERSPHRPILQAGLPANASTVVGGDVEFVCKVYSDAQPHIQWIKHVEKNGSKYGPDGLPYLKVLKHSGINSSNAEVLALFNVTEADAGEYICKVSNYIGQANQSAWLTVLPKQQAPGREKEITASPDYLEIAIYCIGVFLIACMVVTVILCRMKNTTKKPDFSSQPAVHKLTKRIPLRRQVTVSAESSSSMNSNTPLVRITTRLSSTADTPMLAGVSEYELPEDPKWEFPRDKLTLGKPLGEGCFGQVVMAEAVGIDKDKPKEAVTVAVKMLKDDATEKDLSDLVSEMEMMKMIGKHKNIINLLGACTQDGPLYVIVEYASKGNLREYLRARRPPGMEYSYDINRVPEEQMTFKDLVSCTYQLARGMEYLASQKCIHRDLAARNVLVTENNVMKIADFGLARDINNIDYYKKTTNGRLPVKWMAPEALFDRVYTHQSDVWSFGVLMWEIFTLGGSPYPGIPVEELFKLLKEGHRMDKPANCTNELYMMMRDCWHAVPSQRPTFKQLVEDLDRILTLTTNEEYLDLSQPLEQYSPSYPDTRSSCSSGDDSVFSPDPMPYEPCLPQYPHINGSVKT
T3 sequence (P21803 22-707 isoform P21803-2 limits assumed): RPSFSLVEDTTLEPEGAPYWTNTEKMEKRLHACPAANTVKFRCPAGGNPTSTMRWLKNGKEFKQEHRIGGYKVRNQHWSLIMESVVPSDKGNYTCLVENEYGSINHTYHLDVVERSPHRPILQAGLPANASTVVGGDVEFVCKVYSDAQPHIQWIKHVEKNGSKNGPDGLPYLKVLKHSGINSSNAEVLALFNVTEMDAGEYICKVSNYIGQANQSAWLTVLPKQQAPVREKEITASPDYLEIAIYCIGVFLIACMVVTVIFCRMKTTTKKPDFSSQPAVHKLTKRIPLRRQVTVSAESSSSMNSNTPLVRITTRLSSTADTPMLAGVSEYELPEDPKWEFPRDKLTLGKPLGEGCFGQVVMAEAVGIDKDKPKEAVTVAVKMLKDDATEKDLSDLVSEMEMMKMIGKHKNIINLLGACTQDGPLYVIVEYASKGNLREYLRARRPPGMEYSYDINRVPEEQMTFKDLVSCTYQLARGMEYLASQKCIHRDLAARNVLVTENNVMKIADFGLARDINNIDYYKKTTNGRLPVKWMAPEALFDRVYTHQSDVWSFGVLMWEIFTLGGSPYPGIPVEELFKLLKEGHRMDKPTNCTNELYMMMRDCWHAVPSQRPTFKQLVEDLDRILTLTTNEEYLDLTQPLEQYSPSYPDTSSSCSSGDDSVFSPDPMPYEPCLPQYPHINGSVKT
T2 sequence (P11362 22-733 isoform P11362-3 limits assumed): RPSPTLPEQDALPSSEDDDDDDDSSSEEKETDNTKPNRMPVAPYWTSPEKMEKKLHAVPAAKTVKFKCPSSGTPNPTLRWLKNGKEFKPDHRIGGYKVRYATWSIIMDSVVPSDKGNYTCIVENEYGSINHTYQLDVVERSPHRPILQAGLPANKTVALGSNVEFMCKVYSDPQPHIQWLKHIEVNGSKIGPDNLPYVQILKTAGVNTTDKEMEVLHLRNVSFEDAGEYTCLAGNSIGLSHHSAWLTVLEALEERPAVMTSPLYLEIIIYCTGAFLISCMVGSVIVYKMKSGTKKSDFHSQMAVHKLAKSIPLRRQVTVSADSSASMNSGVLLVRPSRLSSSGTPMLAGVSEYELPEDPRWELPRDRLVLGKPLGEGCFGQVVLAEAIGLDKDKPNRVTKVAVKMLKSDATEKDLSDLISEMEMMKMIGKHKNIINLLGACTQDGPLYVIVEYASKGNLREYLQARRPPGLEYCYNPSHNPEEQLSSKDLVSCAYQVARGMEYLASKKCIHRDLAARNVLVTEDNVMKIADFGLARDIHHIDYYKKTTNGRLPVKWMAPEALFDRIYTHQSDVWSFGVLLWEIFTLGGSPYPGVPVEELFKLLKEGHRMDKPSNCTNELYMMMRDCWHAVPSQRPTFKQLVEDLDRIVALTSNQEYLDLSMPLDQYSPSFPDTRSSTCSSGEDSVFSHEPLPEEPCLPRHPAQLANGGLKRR

B1: M048-D01 (antibody, V domains shown)
VH: EVQLLESGGGLVQPGGSLRLSCAASGFTFSSYAMSWVRQAPGKGLEWVSAISGSGTSTYYADSVKGRFTISRDNSKNTLYLQMNSLRAEDTAVYYCARVRYNWNHGDWFDPWGQGTLVTVSS
VL: QSVLTQPPSASGTPGQRVTISCSGSSSNIGNNYVSWYQQLPGTAPKLLIYENYNRPAGVPDRFSGSKSGTSASLAISGLRSEDEADYYCSSWDDSLNYWVFGGGTKLTVL
+++ (+++: >5): Signal-to-background ratio, mFGFR2β-Fc (IIIb) (mFGFR2β-Fc (IIIb)) | Signal-to-background ratio, hFGFR2β-Fc (IIIb) (hFGFR2β-Fc (IIIb)) | Signal-to-background ratio, hFGFR2α-Fc (IIIb) (hFGFR2α-Fc (IIIb)) | Signal-to-background ratio, mFGFR2β-Fc (IIIc) (mFGFR2β-Fc (IIIc)) | Signal-to-background ratio, hFGFR2β-Fc (IIIc) (hFGFR2β-Fc (IIIc))
0 (0: <2): Signal-to-background ratio, hFGFR4-Fc (hFGFR4-Fc) | Signal-to-background ratio, hFGFR1β-Fc (IIIc) (hFGFR1β-Fc (IIIc)) | Signal-to-background ratio, mFGFR3-Fc (IIIc) (mFGFR3-Fc (IIIc)) | Signal-to-background ratio, hFGFR3-Fc (IIIc) (hFGFR3-Fc (IIIc)) | Signal-to-background ratio, hFGFR3-Fc (IIIb) (hFGFR3-Fc (IIIb)) | Signal-to-background ratio, hFGFR1β-Fc (IIIb) (hFGFR1β-Fc (IIIb))

Source: patent US20150023989A1, “NEW ANTIBODY DRUG CONJUGATES (ADCS) AND THE USE THEREOF” (SEATTLE GENETICS, INC., priority 2011, published 2015)
